Patent US20250154240A1 (CHIOME BIOSCIENCE, published 2025)

Key:
human CXCL1 protein [1] = biological target: T1, human CXCL1 protein (human, UniProt P09341 35-107); experiment: antigen-immobilized ELISA, HuCXCL1 on the plate, absorbance (lower left panel)
T1 construct: also called HuCXCL1
T1 sequence: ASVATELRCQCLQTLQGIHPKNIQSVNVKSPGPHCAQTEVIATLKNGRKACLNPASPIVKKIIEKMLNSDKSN

human CXCL1 protein [2] = biological target: T1, human CXCL1 protein; experiment: blocking ELISA: HuCXCL1 immobilised, antibody 0 to 10 µg/mL, then biotin-labeled heparin 10 µg/mL (blocked ligand: heparin); panel HuCXCL1
Experimental: (§1) Thus, the effect of Hu5A-5E11 on the binding of CXCLs to GAG was evaluated by ELISA assay using plates on which the antigen (HuCXCL1 protein) used for immunization or HuCXCL2, 3 and 5 and MsCXCL1 and 2 proteins had been directly immobilized. CXCLs other than HuCXCL1 were purchased from PROTEINTECH and used. Biotin-labeled heparan sulfate and heparin were purchased from PG Research and used.
(§2) To 96-well plates, phosphate-buffered saline (PBS) containing 3 μg/mL of HuCXCL1, 2, 3 or 5 or MsCXCL1 or 10 μg/mL of MsCXCL2 was added in a volume of 50 μL per well, and the plates were allowed to stand overnight at 4° C. After removal of the antigen solutions, PBS containing 0.05% Tween-20 (hereinafter referred to as the blocking solution) was added to each well for blocking reaction, and the plates were allowed to stand at room temperature for 30 minutes. […] TMB (Dako) was added as a chromogenic substrate solution to cause color development, and 1 N sulfuric acid was added to stop the reaction, followed by measurement of absorbance at 450 nm. The binding rate of CXCLs to GAG was calculated as a ratio relative to the absorbance measured in the absence of the antibody, which was set to 100%.

human CXCL3 = biological target: T2, human CXCL3 (human, UniProt P19876 35-107, limits assumed); experiment: blocking ELISA: HuCXCL3 immobilised, antibody 0 to 10 µg/mL, then biotin-labeled heparin 10 µg/mL (blocked ligand: heparin); panel HuCXCL3
T2 construct: also called HuCXCL3
T2 sequence (looked up): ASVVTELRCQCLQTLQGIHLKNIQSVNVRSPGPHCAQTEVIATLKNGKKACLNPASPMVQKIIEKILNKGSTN
Experimental: as §1, §2

human CXCL5 = biological target: T3, human CXCL5 (human, UniProt P42830 37-114, limits assumed); experiment: blocking ELISA: HuCXCL5 immobilised, antibody 0 to 10 µg/mL, then biotin-labeled heparin 10 µg/mL (blocked ligand: heparin); panel HuCXCL5
T3 construct: also called HuCXCL5
T3 sequence (looked up): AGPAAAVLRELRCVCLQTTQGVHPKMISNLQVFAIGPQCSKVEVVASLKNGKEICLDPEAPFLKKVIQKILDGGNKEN
Experimental: as §1, §2

mouse CXCL1 = biological target: T4, mouse CXCL1 (mouse, UniProt P12850 25-96, limits assumed); experiment: blocking ELISA: MsCXCL1 immobilised, antibody 0 to 10 µg/mL, then biotin-labeled heparin 10 µg/mL (blocked ligand: heparin); panel MsCXCL1
T4 construct: also called MsCXCL1
T4 sequence (looked up): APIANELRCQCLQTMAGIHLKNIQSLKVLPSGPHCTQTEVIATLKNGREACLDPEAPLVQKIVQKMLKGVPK
Experimental: as §1, §2

human CXCL2 = biological target: T5, human CXCL2 (human, UniProt P19875 35-107, limits assumed); experiment: blocking ELISA: HuCXCL2 immobilised, antibody 0 to 10 µg/mL, then biotin-labeled heparan sulfate 10 µg/mL (blocked ligand: heparan sulfate); panel HuCXCL2
T5 construct: also called HuCXCL2
T5 sequence (looked up): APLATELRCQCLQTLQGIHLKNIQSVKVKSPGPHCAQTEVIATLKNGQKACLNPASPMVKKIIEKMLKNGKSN
Experimental: as §1, §2

EC50 (read off the curve) (human CXCL1 protein [1]): ~20 ng/mL
IC50 (read off the curve) (human CXCL1 protein [2]): ~0.6 µg/mL
IC50 (read off the curve) (human CXCL3): ~0.5 µg/mL
binding result (human CXCL5): binds
IC50 (read off the curve) (mouse CXCL1): ~0.6 µg/mL
IC50 (read off the curve) (human CXCL2): ~0.8 µg/mL
B1: Hu5A-5E11 VH1/VL1 (antibody, V domains shown)
VH: QVQLVQSGAEVKKPGSSVKVSCKASGYAFSDYWMNWVRQAPGQGLEWIGQIYPGSGDTNYNAKFKGKGTITADKSTSTAYMELSSLRSEDTAVYYCARERDYDVAMDYWGQGTTVTVSS
VL: DIQMTQSPSSLSASVGDRVTITCKASQDINKYIAWFQQKPGKAPKLVIHYTSILQPGVPSRFSGSGSGTDYTFTISSLQPEDIATYYCLQYDNLPWTFGGGTKVEIK
notes: also called humanized Hu5A-5E11
